Assays:
[1] = biological target: YaxAΔ40B_(weak-50aa) nanopore; test: single-channel nanopore electrical recording; single pore in a DPhPC planar bilayer; SA 20 nM or BT 50 nM added to cis; -75 mV; 150 mM NaCl, 15 mM TrisHCl pH 7.5
[2] = biological target: YaxAΔ40B_(strepII-70aa) nanopore; test: single-channel nanopore electrical recording; apparent constants; SA titrated 1-25 nM in cis in 25% (v/v) mixed-protein solution (602 uM BSA, 35 uM HTf, 100 nM BT, 100 nM CRP before dilution); 80 nM biotin in trans; PDB11PEO8:DPhPC (1:1) hybrid bilayer; -75 mV sweeps protocol; 150 mM NaCl, 15 mM TrisHCl pH 7.5
[3] = biological target: streptavidin (Streptomyces avidinii) (UniProt P22629); conditions: cited from earlier work
Chain of streptavidin (Streptomyces avidinii) (P22629 25-183): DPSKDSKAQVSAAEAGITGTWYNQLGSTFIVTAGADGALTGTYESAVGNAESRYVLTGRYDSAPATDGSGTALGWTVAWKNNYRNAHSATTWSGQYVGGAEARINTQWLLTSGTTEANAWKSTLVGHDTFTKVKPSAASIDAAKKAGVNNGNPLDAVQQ

Chain of Streptavidin (P22629 25-183): as above

Row | Substance | dwell time [1] [ms] | Kd [2] [µM] | koff [2] [s⁻¹] | kon [2] [M⁻¹ s⁻¹] | Kd [3] [µM]
1 | Streptavidin (from UniProt P22629 25-183) (natural protein) | 5580 | 0.023 | 0.2 | 8.77e+06 | –
2 | strepII-peptide | – | – | – | – | 70

— PMC12063177
